In patent US10919943B2, “Mutant proteins enabling agrochemical control of plant gene expression” (The Regents of the University of California, priority 2016, dated 2021):

T1: PYR1 (Arabidopsis thaliana, UniProt O49686)
T1 construct: expressed in transfected cells; host or cells: S. cerevisiae strain Y190
T1 sequence (O49686 1-191): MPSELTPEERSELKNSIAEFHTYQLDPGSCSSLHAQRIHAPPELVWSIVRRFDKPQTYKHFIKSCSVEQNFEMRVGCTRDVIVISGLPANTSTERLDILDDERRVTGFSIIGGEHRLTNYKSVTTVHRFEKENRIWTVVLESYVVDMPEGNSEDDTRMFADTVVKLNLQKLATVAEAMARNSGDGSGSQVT


Target: T1, PYR1
Test: Yeast two hybrid of pACT-HAB1 site saturation mutants with pBD-PYR1 on 10 μM ABA, β-galactosidase staining
Format: cell-based
Design: key: x: Mutations in HAB1 that disrupt HAB1 interaction with PYR1
Conditions: S. cerevisiae Y190, 10 μM ABA; dead = lack of detectable staining in comparison to wild type control
Method in brief: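 Read-out is β-galactosidase staining of chloroform-lysed Y190 colonies grown 2 days at 30 °C on SD (-Leu,-Trp) plus 10 μM ABA. Each pACT-HAB1 single-substitution mutant (N-terminally truncated by three residues) was paired with pBD-PYR1; absence of detectable staining relative to wild type scored as dead.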

Row | Molecule | Mutations in HAB1 that disrupt HAB1 interaction with PYR1
1 | G246E: HAB1 mutant (protein, UniProt Q9CAJ0 23-511, looked up, variant G246E) Protein phosphatase 2C 16: SPVEITQLKNVTDAADLLSDSENQSFCNGGTECTMEDVSELEEVGEQDLLKTLSDTRSGSSNVFDEDDVLSVVEDNSAVISEGLLVVDAGSELSLSNTAMEIDNGRVLATAIIVGESSIEQVPTAEVLIAGVNQDTNTSEVVIRLPDENSNHLVKGRSVYELDCIPLWGTVSIQGNRSEMEDAFAVSPHFLKLPIKMLMGDHEGMSPSLTHLTGHFFGVYDGHEGHKVADYCRDRLHFALAEEIERIKDELCKRNTGEGRQVQWDKVFTSCFLTVDGEIEGKIGRAVVGSSDKVLEAVASETVGSTAVVALVCSSHIVVSNCGDSRAVLFRGKEAMPLSVDHKPDREDEYARIENAGGKVIQWQGARVFGVLAMSRSIGDRYLKPYVIPEPEVTFMPRSREDECLILASDGLWDVMNNQEVCEIARRRILMWHKKNGAPPLAERGKGIDPACQAAADYLSMLALQKGSKDNISIIVIDLKAQRKFKTRT | x
2 | G247R: HAB1 mutant (protein, UniProt Q9CAJ0 23-511, looked up, variant G247R) Protein phosphatase 2C 16: SPVEITQLKNVTDAADLLSDSENQSFCNGGTECTMEDVSELEEVGEQDLLKTLSDTRSGSSNVFDEDDVLSVVEDNSAVISEGLLVVDAGSELSLSNTAMEIDNGRVLATAIIVGESSIEQVPTAEVLIAGVNQDTNTSEVVIRLPDENSNHLVKGRSVYELDCIPLWGTVSIQGNRSEMEDAFAVSPHFLKLPIKMLMGDHEGMSPSLTHLTGHFFGVYDGHGRHKVADYCRDRLHFALAEEIERIKDELCKRNTGEGRQVQWDKVFTSCFLTVDGEIEGKIGRAVVGSSDKVLEAVASETVGSTAVVALVCSSHIVVSNCGDSRAVLFRGKEAMPLSVDHKPDREDEYARIENAGGKVIQWQGARVFGVLAMSRSIGDRYLKPYVIPEPEVTFMPRSREDECLILASDGLWDVMNNQEVCEIARRRILMWHKKNGAPPLAERGKGIDPACQAAADYLSMLALQKGSKDNISIIVIDLKAQRKFKTRT | x
3 | G247Q: HAB1 mutant (protein, UniProt Q9CAJ0 23-511, looked up, variant G247Q) Protein phosphatase 2C 16: SPVEITQLKNVTDAADLLSDSENQSFCNGGTECTMEDVSELEEVGEQDLLKTLSDTRSGSSNVFDEDDVLSVVEDNSAVISEGLLVVDAGSELSLSNTAMEIDNGRVLATAIIVGESSIEQVPTAEVLIAGVNQDTNTSEVVIRLPDENSNHLVKGRSVYELDCIPLWGTVSIQGNRSEMEDAFAVSPHFLKLPIKMLMGDHEGMSPSLTHLTGHFFGVYDGHGQHKVADYCRDRLHFALAEEIERIKDELCKRNTGEGRQVQWDKVFTSCFLTVDGEIEGKIGRAVVGSSDKVLEAVASETVGSTAVVALVCSSHIVVSNCGDSRAVLFRGKEAMPLSVDHKPDREDEYARIENAGGKVIQWQGARVFGVLAMSRSIGDRYLKPYVIPEPEVTFMPRSREDECLILASDGLWDVMNNQEVCEIARRRILMWHKKNGAPPLAERGKGIDPACQAAADYLSMLALQKGSKDNISIIVIDLKAQRKFKTRT | x
4 | G247M: HAB1 mutant (protein, UniProt Q9CAJ0 23-511, looked up, variant G247M) Protein phosphatase 2C 16: SPVEITQLKNVTDAADLLSDSENQSFCNGGTECTMEDVSELEEVGEQDLLKTLSDTRSGSSNVFDEDDVLSVVEDNSAVISEGLLVVDAGSELSLSNTAMEIDNGRVLATAIIVGESSIEQVPTAEVLIAGVNQDTNTSEVVIRLPDENSNHLVKGRSVYELDCIPLWGTVSIQGNRSEMEDAFAVSPHFLKLPIKMLMGDHEGMSPSLTHLTGHFFGVYDGHGMHKVADYCRDRLHFALAEEIERIKDELCKRNTGEGRQVQWDKVFTSCFLTVDGEIEGKIGRAVVGSSDKVLEAVASETVGSTAVVALVCSSHIVVSNCGDSRAVLFRGKEAMPLSVDHKPDREDEYARIENAGGKVIQWQGARVFGVLAMSRSIGDRYLKPYVIPEPEVTFMPRSREDECLILASDGLWDVMNNQEVCEIARRRILMWHKKNGAPPLAERGKGIDPACQAAADYLSMLALQKGSKDNISIIVIDLKAQRKFKTRT | x
5 | G247P: HAB1 mutant (protein, UniProt Q9CAJ0 23-511, looked up, variant G247P) Protein phosphatase 2C 16: SPVEITQLKNVTDAADLLSDSENQSFCNGGTECTMEDVSELEEVGEQDLLKTLSDTRSGSSNVFDEDDVLSVVEDNSAVISEGLLVVDAGSELSLSNTAMEIDNGRVLATAIIVGESSIEQVPTAEVLIAGVNQDTNTSEVVIRLPDENSNHLVKGRSVYELDCIPLWGTVSIQGNRSEMEDAFAVSPHFLKLPIKMLMGDHEGMSPSLTHLTGHFFGVYDGHGPHKVADYCRDRLHFALAEEIERIKDELCKRNTGEGRQVQWDKVFTSCFLTVDGEIEGKIGRAVVGSSDKVLEAVASETVGSTAVVALVCSSHIVVSNCGDSRAVLFRGKEAMPLSVDHKPDREDEYARIENAGGKVIQWQGARVFGVLAMSRSIGDRYLKPYVIPEPEVTFMPRSREDECLILASDGLWDVMNNQEVCEIARRRILMWHKKNGAPPLAERGKGIDPACQAAADYLSMLALQKGSKDNISIIVIDLKAQRKFKTRT | x
6 | G247A: HAB1 mutant (protein, UniProt Q9CAJ0 23-511, looked up, variant G247A) Protein phosphatase 2C 16: SPVEITQLKNVTDAADLLSDSENQSFCNGGTECTMEDVSELEEVGEQDLLKTLSDTRSGSSNVFDEDDVLSVVEDNSAVISEGLLVVDAGSELSLSNTAMEIDNGRVLATAIIVGESSIEQVPTAEVLIAGVNQDTNTSEVVIRLPDENSNHLVKGRSVYELDCIPLWGTVSIQGNRSEMEDAFAVSPHFLKLPIKMLMGDHEGMSPSLTHLTGHFFGVYDGHGAHKVADYCRDRLHFALAEEIERIKDELCKRNTGEGRQVQWDKVFTSCFLTVDGEIEGKIGRAVVGSSDKVLEAVASETVGSTAVVALVCSSHIVVSNCGDSRAVLFRGKEAMPLSVDHKPDREDEYARIENAGGKVIQWQGARVFGVLAMSRSIGDRYLKPYVIPEPEVTFMPRSREDECLILASDGLWDVMNNQEVCEIARRRILMWHKKNGAPPLAERGKGIDPACQAAADYLSMLALQKGSKDNISIIVIDLKAQRKFKTRT | x
7 | G246I: HAB1 mutant (protein, UniProt Q9CAJ0 23-511, looked up, variant G246I) Protein phosphatase 2C 16: SPVEITQLKNVTDAADLLSDSENQSFCNGGTECTMEDVSELEEVGEQDLLKTLSDTRSGSSNVFDEDDVLSVVEDNSAVISEGLLVVDAGSELSLSNTAMEIDNGRVLATAIIVGESSIEQVPTAEVLIAGVNQDTNTSEVVIRLPDENSNHLVKGRSVYELDCIPLWGTVSIQGNRSEMEDAFAVSPHFLKLPIKMLMGDHEGMSPSLTHLTGHFFGVYDGHIGHKVADYCRDRLHFALAEEIERIKDELCKRNTGEGRQVQWDKVFTSCFLTVDGEIEGKIGRAVVGSSDKVLEAVASETVGSTAVVALVCSSHIVVSNCGDSRAVLFRGKEAMPLSVDHKPDREDEYARIENAGGKVIQWQGARVFGVLAMSRSIGDRYLKPYVIPEPEVTFMPRSREDECLILASDGLWDVMNNQEVCEIARRRILMWHKKNGAPPLAERGKGIDPACQAAADYLSMLALQKGSKDNISIIVIDLKAQRKFKTRT | x
8 | G246K: HAB1 mutant (protein, UniProt Q9CAJ0 23-511, looked up, variant G246K) Protein phosphatase 2C 16: SPVEITQLKNVTDAADLLSDSENQSFCNGGTECTMEDVSELEEVGEQDLLKTLSDTRSGSSNVFDEDDVLSVVEDNSAVISEGLLVVDAGSELSLSNTAMEIDNGRVLATAIIVGESSIEQVPTAEVLIAGVNQDTNTSEVVIRLPDENSNHLVKGRSVYELDCIPLWGTVSIQGNRSEMEDAFAVSPHFLKLPIKMLMGDHEGMSPSLTHLTGHFFGVYDGHKGHKVADYCRDRLHFALAEEIERIKDELCKRNTGEGRQVQWDKVFTSCFLTVDGEIEGKIGRAVVGSSDKVLEAVASETVGSTAVVALVCSSHIVVSNCGDSRAVLFRGKEAMPLSVDHKPDREDEYARIENAGGKVIQWQGARVFGVLAMSRSIGDRYLKPYVIPEPEVTFMPRSREDECLILASDGLWDVMNNQEVCEIARRRILMWHKKNGAPPLAERGKGIDPACQAAADYLSMLALQKGSKDNISIIVIDLKAQRKFKTRT | x
9 | G246F: HAB1 mutant (protein, UniProt Q9CAJ0 23-511, looked up, variant G246F) Protein phosphatase 2C 16: SPVEITQLKNVTDAADLLSDSENQSFCNGGTECTMEDVSELEEVGEQDLLKTLSDTRSGSSNVFDEDDVLSVVEDNSAVISEGLLVVDAGSELSLSNTAMEIDNGRVLATAIIVGESSIEQVPTAEVLIAGVNQDTNTSEVVIRLPDENSNHLVKGRSVYELDCIPLWGTVSIQGNRSEMEDAFAVSPHFLKLPIKMLMGDHEGMSPSLTHLTGHFFGVYDGHFGHKVADYCRDRLHFALAEEIERIKDELCKRNTGEGRQVQWDKVFTSCFLTVDGEIEGKIGRAVVGSSDKVLEAVASETVGSTAVVALVCSSHIVVSNCGDSRAVLFRGKEAMPLSVDHKPDREDEYARIENAGGKVIQWQGARVFGVLAMSRSIGDRYLKPYVIPEPEVTFMPRSREDECLILASDGLWDVMNNQEVCEIARRRILMWHKKNGAPPLAERGKGIDPACQAAADYLSMLALQKGSKDNISIIVIDLKAQRKFKTRT | x
10 | G246H: HAB1 mutant (protein, UniProt Q9CAJ0 23-511, looked up, variant G246H) Protein phosphatase 2C 16: SPVEITQLKNVTDAADLLSDSENQSFCNGGTECTMEDVSELEEVGEQDLLKTLSDTRSGSSNVFDEDDVLSVVEDNSAVISEGLLVVDAGSELSLSNTAMEIDNGRVLATAIIVGESSIEQVPTAEVLIAGVNQDTNTSEVVIRLPDENSNHLVKGRSVYELDCIPLWGTVSIQGNRSEMEDAFAVSPHFLKLPIKMLMGDHEGMSPSLTHLTGHFFGVYDGHHGHKVADYCRDRLHFALAEEIERIKDELCKRNTGEGRQVQWDKVFTSCFLTVDGEIEGKIGRAVVGSSDKVLEAVASETVGSTAVVALVCSSHIVVSNCGDSRAVLFRGKEAMPLSVDHKPDREDEYARIENAGGKVIQWQGARVFGVLAMSRSIGDRYLKPYVIPEPEVTFMPRSREDECLILASDGLWDVMNNQEVCEIARRRILMWHKKNGAPPLAERGKGIDPACQAAADYLSMLALQKGSKDNISIIVIDLKAQRKFKTRT | x
